According to patent publication US20200277375A1 (ULTRAHUMAN FOUR, published 2020):
Numbering of substitutions follows the chain as printed. Numbers in names are those of the source.

B1: mVH/mVL (chimeric VxP037) in human IgG1null format (antibody, V domains shown)
VH: EVQLQQFGAELVKPGASMKLSCKASGYTFTNYYVFWVKQRPGQGLEWIGDINPVNGDTNFNEKFKNKATLTVDKSSTTTYLQLSSLTSEDSAVYYCTRGGYTMDYWGQGTLVTVSS
VL: DVVMTQTPLSLSVSLGDQASISCRSSQSLVHSNGNTYLHWYLQKPGQSPKLLIYKVSYRFSGVPDRFSGSGSGTDFTLKISRVEAEDLGVYFCSQNTHVPRTFGQGTKVEIK
notes: Murine v-domains on human IgG1null (IgG1 L234A/L235A/G237A), kappa; also called VP037; Chimeric anti-CD47
B2: A-D5.11 in human IgG1null format (antibody, V domains shown)
VH: EVQLVQSGAEVKKPGESLKISCKGSGYSFTNYYIFWVRQMPGKGLEWMGIINPVDGDTNYNPSFQGQVTISADKSISTAYLQWSSLKASDTAMYYCARGGYTMDRWGQGTLVTVSS
VL: DIVMTQSPLSLPVTPGEPASISCRSSQSLLHSNGYNYLHWYLQKPGQSPQLLIYKVSNRLSGVPDRFSGSGSGTDFTLKISRVEAEDVGVYYCFQNTHTPRTFGQGTKVEIK
notes: Designer clone from A-D5.4; IgG1null
B3: A-D5.15 in human IgG1null format (antibody, V domains shown)
VH: B2 VH with N59R, N61S
VL: B2 VL with N33G
notes: as for B2
B4: A-D5.18 in human IgG1null format (antibody, V domains shown)
VH: B2 VH with N59R, N61S
VL: B2 VL with G34A
notes: as for B2
B5: A-D5.17 in human IgG1null format (antibody, V domains shown)
VH: B2 VH with N59R, N61S
VL: B2 VL with N33T
notes: as for B2
B6: A-D5.13 in human IgG1null format (antibody, V domains shown)
VH: B2 VH with N59R, N61S
VL: B2 VL
notes: as for B2
B7: A-D5.12 in human IgG1null format (antibody, V domains shown)
VH: B2 VH with N59R
VL: B2 VL
notes: as for B2
B8: A-D5.14 in human IgG1null format (antibody, V domains shown)
VH: B2 VH with N59R, N61S
VL: B2 VL with N33S
notes: as for B2
B9: A-D5.9 in human IgG1null format (antibody, V domains shown)
VH: B2 VH with S28T
VL: B2 VL with N36T, N96Q
notes: Designer clone from A-D5; IgG1null
B10: A-D5.6 in human IgG1null format (antibody, V domains shown)
VH: B2 VH with S28T
VL: B2 VL with V56G, H98Q
notes: as for B9
B11: A-D5.3 in human IgG1null format (antibody, V domains shown)
VH: B2 VH with N59R, N61S
VL: B2 VL with N36T
notes: as for B9
B12: A-D5.1 in human IgG1null format (antibody, V domains shown)
VH: B2 VH
VL: B2 VL with N36T
notes: as for B9
B13: A-D5.10 in human IgG1null format (antibody, V domains shown)
VH: B2 VH with S28T
VL: B2 VL with N33Q, N36T, N96Q
notes: as for B9
B14: A-D5.5 in human IgG1null format (antibody, V domains shown)
VH: B2 VH with S28T
VL: B2 VL with V56G
notes: as for B9
B15: mVH/mVL (chimeric VxP037) in human IgG4(S228P) format (antibody, V domains shown)
VH: B1 VH
VL: B1 VL
notes: IgG4 with S228P; also called mVH/mVL IgG4
B16: G-B6 in human IgG4(S228P) format (antibody, V domains shown)
VH: B2 VH with M48I, I50D, D55N, Y60F, N61S, R105K
VL: B2 VL with L30V, N36T, V56G, N58Y, L60A, F94S, H98Q
notes: IgG4(S228P), kappa; also called G-B6 IgG4
B17: F-E7 in human IgG4(S228P) format (antibody, V domains shown)
VH: B2 VH with D55N, D104G, R105K
VL: B2 VL with L30V, Y35N, N36T, H39D, V56G, N58Y, L60F, F94S, N96A
notes: IgG4(S228P), kappa; also called F-E7 IgG4
B18: D-H3 in human IgG4(S228P) format (antibody, V domains shown)
VH: B2 VH with I50D, D55N, N61S, M103P, R105Y
VL: B2 VL with V56G, L60F, F94S, T97L, T99V
notes: IgG4(S228P), kappa; also called D-H3 IgG4
B19: A-D5 in human IgG4(S228P) format (antibody, V domains shown)
VH: B2 VH with S28T
VL: B2 VL with N36T
notes: IgG4(S228P), kappa; also called IgG4 A-D5
B20: VH-A1/VL-B1 in human IgG4(S228P) format (antibody, V domains shown)
VH: B2 VH with N59R, N61S, Y101F, R105Y
VL: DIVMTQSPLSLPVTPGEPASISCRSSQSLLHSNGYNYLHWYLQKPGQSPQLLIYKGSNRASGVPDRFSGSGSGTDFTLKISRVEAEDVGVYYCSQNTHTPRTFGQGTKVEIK
notes: IgG4(S228P), kappa; also called VH-A1/VL-B1 IgG4

target: T1, mouse CD47-Fc (mouse, UniProt Q61735 19-140, limits assumed); test: direct titration ELISA, FIG. 11C
T1 construct: Recombinant CD47-Fc; also called mCD47-Fc; mCD37-Fc [sic]; not shown: Fc part
T1 sequence (looked up): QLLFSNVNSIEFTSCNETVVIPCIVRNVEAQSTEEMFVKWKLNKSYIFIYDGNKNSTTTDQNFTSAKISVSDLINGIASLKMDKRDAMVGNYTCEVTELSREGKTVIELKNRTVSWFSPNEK
Description: (§1) FIG. 11A-FIG. 11C. Direct titration ELISA for A-D5.4-derived designer IgGs binding to human, mouse and cyno CD47-Fc proteins. Chimeric anti-CD47 (mVH/mVL), designer A-D5.4-derived clones in human IgG1 null format were titrated (in μg/ml) in a direct binding ELISA against human (FIG. 11A), cyno (FIG. 11B) and mouse (FIG. 11C) CD47-Fc proteins. […] In the figure legends, “IgG1NI” refers to IgG1 null isotype.
(§2) To coat Greiner Bio-One High bind ELISA plates, target proteins were diluted to 1 μg/ml in carbonate buffer and added at 100 μl per well, at 4° C., o/n. Coated plates were washed 3× with PBS pH7.4, blocked with 1% BSA in PBS (380 μl/well) for 1 hr at RT, then washed 3× with PBS-Tween 20 (PBST). CD47 antibodies (100 μl/well; diluted in PBST) were then added and then incubated 1 hr at RT. Plates were then washed 3× with PBST and goat anti-human kappa chain-HRP added (100 μl/well) at RT, for 1 hr. Plates were then washed 3× with PBST and twice with PBS before the addition of 100 μl TMB per well. Reactions were stopped by adding 100 μl 2M H₂SO₄/well and OD was read on a plate reader at 450 nm.

Q: Does B1 bind?
A: Result: binds

Q: Does B2 bind?
A: Result: binds

Q: Does B3 bind?
A: Result: binds

Q: Does B4 bind?
A: Result: binds

Q: Does B5 bind?
A: Result: binds

Q: Does B6 bind?
A: Result: binds

Q: Does B7 bind?
A: Result: binds

Q: Does B8 bind?
A: Result: binds

target: T2, human CD47-Fc (human, UniProt Q08722 19-139); test: direct titration ELISA, FIG. 9A
T2 construct: Recombinant CD47-Fc; also called hCD47-Fc; not shown: Fc part
Description: FIG. 9A-FIG. 9C. Direct titration ELISA for designer IgGs binding to human, mouse and cyno CD47-Fc proteins. Chimeric anti-CD47 (mVH/mVL), designer A-D5-derived clones in human IgG1null format were titrated (in μg/ml) in a direct binding ELISA against human (FIG. 9A), cyno (FIG. 9B) and mouse (FIG. 9C) CD47-Fc proteins. […] In the figure legend, “IgG1NI” refers to IgG1 null isotype.
as §2

Q: Does B9 bind?
A: Result: binds

Q: Does B10 bind?
A: Result: binds

Q: Does B11 bind?
A: Result: binds

Q: Does B12 bind?
A: Result: binds

Q: Does B13 bind?
A: Result: binds

Q: Does B14 bind?
A: Result: binds

target: T3, cynomolgus monkey CD47 on transfected CHO-K1 cells (cynomolgus monkey, UniProt A0A5F8AK49 19-323 (rhesus entry)); test: flow cytometry, cyno CD47-transfected CHO-K1, FIG. 6
T3 construct: whole, on cells; also called cyno CD47+ cells
Description: (§3) FIG. 6A-FIG. 6C. Flow cytometric binding to human and cyno CD47+CHO-K1 cells. Commercial anti-CD47 antibody MS1991, human IgG1 (“I IgG1”) and IgG4 (“I IgG4”) Isotype controls, lead library-derived IgGs in both IgG1null (“IgG1N”) and IgG4(S228P) formats were examined for specific binding on cyno-transfected CHO-K1 cells (FIG. 6A), human-transfected CHO-K1 cells (FIG. 6B), and wild type (wt, i.e. untransfected) CHO-K1 cells (FIG. 6C). IgGs were tested at concentrations ranging from 24-100,000 ng/ml. Concentration-dependent binding was observed against both human and cyno cell lines for all CD47-specific antibodies but not Isotype controls.
(§4) Antibodies to CD47 were analysed for concentration-dependent binding at the cell surface via flow cytometry. CHO-K1 cells were stably transfected with either human, mouse or cyno CD47 full-length cDNAs. Anti-CD47 IgGs mVH/mVL, VH-A1/VL-B1, A-D5, G-B6, F-E7 and D-H3, and an isotype control IgG1 were then all tested in IgG1null and IgG4(S228P) formats, alongside a commercial mouse anti-human CD47 monoclonal MS1991, over a concentration range of 100,000-24 ng/ml for binding to human, cyno or wild type control (‘wt’, i.e. untransfected) CHO-K1.

Q: For B1, which “maximum MFI, fold over untransfected CHO-K1” value (shortened to “maximum MFI, fold”) is on record?
A: Its value is > 10 fold.

Q: For B15, which “maximum MFI, fold” value is on record?
A: Its value is > 10 fold.

Q: How did the “maximum MFI, fold” value turn out when B16 was run?
A: The value was > 10 fold.

Q: With B17 as the binder, how does the “maximum MFI, fold” value read?
A: Its value is > 10 fold.

Q: B18 was tested. Which “maximum MFI, fold” value did it give?
A: Its value is > 10 fold.

Q: For B19, which “maximum MFI, fold” value is on record?
A: Its value is > 10 fold.

Q: With B20 as the binder, how does the “maximum MFI, fold” value read?
A: Its value is > 10 fold.

target: T4, human CD47 on cells (human CD47-transfected CHO-K1; HL60) (human, UniProt Q08722 19-323); test: flow cytometry, human CD47-transfected CHO-K1, FIG. 6
T4 construct: whole, on cells; also called human CD47+ cells; human CD47+HL60 cells
Description: as §3, §4

Q: For B1, which “maximum MFI, fold” value is on record?
A: Its value is > 10 fold.

Q: Which “maximum MFI, fold” value does the source give for B15 here?
A: Its value is > 10 fold.

Q: B16 was tested. Which “maximum MFI, fold” value did it give?
A: The value was > 10 fold.

Q: For B17, which “maximum MFI, fold” value is on record?
A: The value was > 10 fold.

Q: For B18, which “maximum MFI, fold” value is on record?
A: Its value is > 10 fold.

Q: For B19, which “maximum MFI, fold” value is on record?
A: The value was > 10 fold.

Q: For B20, which “maximum MFI, fold” value is on record?
A: Its value is > 10 fold.

target: T2, human CD47-Fc; test: direct titration ELISA, FIG. 11A
Description: as §1, §2

Q: Does B2 bind?
A: Result: binds

Q: Does B3 bind?
A: Result: binds

Q: Does B4 bind?
A: Result: binds

Q: Does B5 bind?
A: Result: binds

Q: Does B6 bind?
A: Result: binds

Q: Does B7 bind?
A: Result: binds

Q: Does B8 bind?
A: Result: binds
